Changes are numbered by the printed parent chain.
T1: human NKp30-his protein (KACTUS; Cat: NKP-HM430) (human, UniProt O14931 19-135, limits assumed)
T1 construct: Bought protein (KACTUS NKP-HM430); not shown: His tag
T1 sequence (looked up): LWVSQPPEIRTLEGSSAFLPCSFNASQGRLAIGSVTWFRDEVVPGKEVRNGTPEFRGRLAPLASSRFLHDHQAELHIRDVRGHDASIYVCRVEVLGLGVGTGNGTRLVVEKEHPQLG

B1: antibody 11 (antibody, V domains shown)
VH: EVQLVESGGGLVQPGESLRLSCVASGGDFRFKSMGWYRQAPGKLRELVAGITTGGVTDYADSVKGRFTISRDNANKAVWLQMNRLKPDDTAVYDCNTLGAAAYDWGQGTQVTVSS
notes: expressed in CHO cells
B2: antibody 2 (antibody, V domains shown)
VH: QVQLVESGGGLVQPGGSLRLSCAASGSIFSVNEMGWYRQAPGKLRELVAAITSDGTTAYADSVKGRFTISRDNAKNTVYLQMNSLKPEDTAVYDCNTWPEARGDWGQGTQVTVSS
notes: expressed in CHO cells
B3: antibody 14 (antibody, V domains shown)
VH: B2 VH with V2L, A24V, G26A, E100Q
notes: expressed in CHO cells
B4: antibody 21 (antibody, V domains shown)
VH: EVQLVESGGGLVQPGGSLRLSCAASGSTYAFYNMGWFRQRPGKEREFAAAILWGRSGVYTTYADSVKGRFTISRDNAQNTVYLQMNSLKPEDTAVYYCAAGLGTMRANEYDYWGQGTQVTVSS
notes: expressed in CHO cells
B5: antibody 1 (antibody, V domains shown)
VH: QLQLVESGGGTVQTGGSLRLACVVSGPTYSFYDMGWFRRAPGKEREFVAAVTASGDTTIYADSVKGRFTIARDNAKNTVYLQMNSLKSEDTGAYYCAAGEYSSTAATYYYWGQGTQVTVSS
notes: expressed in CHO cells
B6: antibody 16 (antibody, V domains shown)
VH: EVQLVESGGGLVQAGGSLRLSCAASGISLITYNMGWYRQAPGKLRELVAGITTGGITDYTDSVKGRFTISRDNAKNTLYLQMNSLKPEDTAVYYCDTLGMANYWGQGTQVTVSS
notes: expressed in CHO cells
B7: antibody 5 (antibody, V domains shown)
VH: EVQVVESGGGLVQAGGSLTLSCAASGRPFSTFPTSMGWFRQAPGKEREFVAAISESGLNTYYRDSVKGRFGISRDNAKNTVYLQMNTLTAEDTAVYFCAAAPGYMTTDSQYYLGNKYQYWGQGTQVTVSS
notes: expressed in CHO cells
B8: antibody 6 (antibody, V domains shown)
VH: QVQLVESGGGLVQPGGSLRLSCAASRAIFPEYSIAWFRQAPGKEREGVALVSRIGDRVDYADSVKGRFTISRDNAKNTVYLQMNSLKPEDTAVYHCAAGQLSSSTYYGDEYVYWGQGTQVTVSS
notes: expressed in CHO cells
B9: antibody 8 (antibody, V domains shown)
VH: QVQLVESGGGLVQTGDSLRLSCAASGRTYDNYAMGWFRQAPGKEREFVAAFSQNGGRTDYADSVKGRFAISDDRSTVHLDMNSLLPEDTAVYYCAARPPAYFSNAVYSKVDEYRYWGQGTQVTVSS
notes: expressed in CHO cells
B10: antibody 10 (antibody, V domains shown)
VH: QVQLVESGGGLVQPGGSLTLSCAVSGITFSRSVMGWFRQAPGKLRELVAGITSDDNTDYADSVKGRFTISRDNAKNTVYLQMNSLKPEDTAVYYCNILPDSRLGWGQGTQVTVSS
notes: expressed in CHO cells; also called chimeric antibody 10
B11: antibody 22 (antibody, V domains shown)
VH: QVQLVESGGGLVQPGGSLRLSCAASGSIFSANVMGWYRQAPGKLRELVAGMHSGGSANYADSVKGRFTISKDNAKNTMYLQMNSLKPEDTAVYYCNFGLGFDGHDYWGQGTQVTVSA
notes: expressed in CHO cells
B12: antibody 9 (antibody, V domains shown)
VH: QVQLVESGGGSVQAGGSLRLSCAASGRTFSDYVMGWFRQAPGKEREFVGTITRIGGMPYYADFVKGRFTISRDYAKNAGYLQLNNLKPEDTALYYCALDLRLRLGVTPREYDYWGQGTQVTVSS
notes: expressed in CHO cells
B13: antibody 12 (antibody, V domains shown)
VH: EVQLVESGGDLVQPGGSLRLSCAAFGSSFSIDMMGWYRQVPGKQRELVAGITKGGFADYADSVKGRFTISMDAAKNTVYLQMNSLKPEDTAVYYCNTLPTHSDWGQGTQVTVSS
notes: expressed in CHO cells
B14: antibody 19 (antibody, V domains shown)
VH: B13 VH with L4V
notes: expressed in CHO cells
B15: antibody 15 (antibody, V domains shown)
VH: EVQLVESGGGSVQTGGSLRLSCAASGPTFNFYGMAWFRQAPGKEREFVASIIPGSGDTSYASSVRGRFTISEDNARNNAYLQMNTLKPEDTAVYYCAAGTGGIYSSDYPYWGQGTQVTVSS
notes: expressed in CHO cells
B16: antibody 20 (antibody, V domains shown)
VH: EVQLVESGGGLVQPGGSLRLSCAASGSAFSIEPWGWYRQAPGQLRELVAGITSDDKTDYADSVKDRFTISRDNAKNTVFLQMNSLKPEDTAVYYCNVLGWPRDDYWGQGTQVTVSS
notes: expressed in CHO cells
B17: antibody 13 (antibody, V domains shown)
VH: EVQLVESGGGLVQPGGSLRLSCAASGGIFGSTHMGWYRQAPGKLREMVAGITSTGNHRNVADSVKGRFTISKDNAKNTLYLQMNSLKPEDTAVYYCNSFPDQVFNWGQGTQVTVSS
notes: expressed in CHO cells
B18: antibody 7 (antibody, V domains shown)
VH: EVQVVESGGGLVQAGGSLRLSCAASGRTFSNYNVGWFRQAPGKEREFLATISESGGSTYYADSVKGRFTISRDNGINMVYLQMSSLKPEDTAVYYCAESRIFSFSYADGRGYAYWGQGTQVTVFS
notes: expressed in CHO cells
B19: antibody 4 (antibody, V domains shown)
VH: QVQLVESGGGLVQPGGSLRLSCAASGSIFKINAMGWYRQAPGKLRELVAGITSGGSTNYADSVKGRFTISRDNAKNTLYLQMNSLKPDDTAVYYCNQLGFPQYWGQGTQVTVSS
notes: expressed in CHO cells
B20: antibody 3 (antibody, V domains shown)
VH: QLQLVESGGGLVQTGDSTKLSCTASGRSFSINDMGWYRQAPGKLRELVAGITSGGSTNYADSVKGRFTISRDNAKNTVYLQMNSLKPEDTAVYYCNVLGWPDFGSWGQGTQVTVSS
notes: expressed in CHO cells
B21: antibody 17 (antibody, V domains shown)
VH: QLQLVESGGGLVQPGGSLRLSCAASGSIDSINAMGWYRQAPGKLRELVAGITRGGDVNYADSVKGRFTISRVDARNTVTVYLQMNSLKPEDTAVYYCNNLGFPSDWAQGTQVTVSS
notes: expressed in CHO cells
B22: antibody 10-hu4 (antibody, V domains shown)
VH: B10 VH with Q1E, T19R, V24A, A74S, V78L, K86R, P87A, Q110L
B23: antibody 10-hu5 (antibody, V domains shown)
VH: B10 VH with Q1E, T19R, A74S, V78L, K86R, P87A, Q110L
B24: antibody 10-hu3 (antibody, V domains shown)
VH: B10 VH with Q1E, T19R, V24A, A74S, V78L, K86R, P87A, N96A, Q110L
B25: antibody 10-hu1 (antibody, V domains shown)
VH: EVQLVESGGGLVQPGGSLRLSCAASGITFSRSVMGWFRQAPGKLRELVSGITSDDNTDYADSVKGRFTISRDNSKNTLYLQMNSLRAEDTAVYYCARLPDSRLGWGQGTLVTVSS
B26: antibody 10-hu2 (antibody, V domains shown)
VH: B25 VH with S49A
B27: antibody 18-hu1 (antibody, V domains shown)
VH: EVQLVESGGGLVQPGGSLRLSCAASGIRFSIANMGWYRQAPGKLHEMVSGITSDGFTNYADSVKGRFTISRDNSKNTLYLQMNSLRAEDTAVYYCAKFPTRHYWGQGTLVTVSS
B28: antibody 18-hu2 (antibody, V domains shown)
VH: B27 VH with S49A

These binders were tested against T1, human NKp30-his protein (KACTUS; Cat: …) (assay: BLI (Octet Red96e), antibody captured on AHC sensor, 100 nM human NKp30-his in solution, 1:1 fit).
Protocol: After equilibration of the AHC sensor with 0.02% PBST (0.02% Tween 20, pH 7.4, 1*PBS) as buffer for 60 s, the NKp30 antibody in the sample plate was immobilized for 300 s and second equilibration was performed for 180 s. […] human NKp30-his protein (KACTUS; Cat: NKP-HM430) was bound with NKp30 antibody for 300 s and then dissociated for 600 s. After dissociation, 10 mM glycine (pH 2.0) was used as regeneration buffer to regenerate for 30 s.
Subtract the result plot for reference channel H1 from the test result plot. The experimental data fit the 1:1 binding model. The molecular weight of 35 kDa was used to calculate the molar concentration of human NKp30 protein.

Kd	Binder
3.06 nM	B1
0.597 nM	B2
1.35 nM	B3
20.1 nM	B4
1.46 nM	B5
0.997 nM	B6
104 nM	B7
2.88 nM	B8
9.11 nM	B9
0.201 nM	B10
2.31 nM	B11
5.56 nM	B12
0.491 nM	B13
1.81 nM	B14
0.347 nM	B15
1.25 nM	B16
0.433 nM	B17
9.64 nM	B18
4.97 nM	B19
2.07 nM	B20
1.26 nM	B21

These binders were tested against T1, human NKp30-his protein (KACTUS; Cat: …) (assay: ELISA, Human-NKp30-His coated at 0.2 µg/mL, antibody from 10 µg/mL in 3-fold steps, goat anti-human Fc, OD450 (Example 11)).
Protocol: Human-NKp30-His (purchased from KACTUS, item No. NKP-HM430) was diluted to 0.2 μg/mL with the coating solution (1×PBS, pH 7.4), and was coated into 96-well enzyme-labelled plates at 100 μL/well and allowed to stand overnight at 4° C. The coating solution was poured off, the plate was washed with 1×PBST at 300 μL/well, washed with a plate washer for 4 times, and patted dry on a plate paper. The plate was blocked with 3% skimmed milk powder at 300 μL/well, and incubated at 37° C. for 1 h. The blocking solution was poured off, washed with a plate washer for 4 times, and patted dry on a plate paper. The reference product and the test product were diluted with 3% skimmed milk powder to 10 μg/mL, and the initial concentration was diluted by 3 times. A total of 11 gradients were diluted, and another blank well was set, and only diluent was added. It was incubated at 37° C. and 100 μL/well for 1 h. Liquid in the wells was discarded, and washed with a plate washer for 4 times, and patted dry on a plate paper. The goat anti-human Fc was diluted with 3% skimmed milk powder at 1: 20,000 and 100 μL/well, and incubated at 37° C. for 1 h. The plate was washed with a plate washer for 6 times, and patted dry on a plate paper. TMB color developing solution was added at 100 μL/well, and wrapped with an aluminum foil, and the color was developed at 37° C. for 8 minutes, protected from light. The termination solution 1 M HCl was added at 100 μL/well to terminate the color development reaction. It was read at 450 nm on an enzyme-labeled instrument.

EC50	Binder
0.00719 µg/mL	B22
0.0104 µg/mL	B23
0.00522 µg/mL	B10
0.0118 µg/mL	B24
0.378 µg/mL	B25
0.0246 µg/mL	B26
0.0348 µg/mL	B27
0.0105 µg/mL	B28
